Source: patent publication US20260285972 (published 2026)
Substitutions are numbered along the chain they refer to.

T1: recombinant human GPRC5D-Flag-His (human, UniProt Q9NZD1)
T1 chain: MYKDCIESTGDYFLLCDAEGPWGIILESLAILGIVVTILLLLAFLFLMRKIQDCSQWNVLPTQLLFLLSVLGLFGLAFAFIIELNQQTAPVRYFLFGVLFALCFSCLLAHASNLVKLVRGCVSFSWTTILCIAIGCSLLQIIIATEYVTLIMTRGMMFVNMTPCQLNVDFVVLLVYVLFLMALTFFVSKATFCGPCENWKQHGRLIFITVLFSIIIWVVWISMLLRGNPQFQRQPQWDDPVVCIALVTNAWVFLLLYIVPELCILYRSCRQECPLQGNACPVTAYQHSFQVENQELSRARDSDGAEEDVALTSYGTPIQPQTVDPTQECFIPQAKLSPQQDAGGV

B1: 22Mono3L7F (antibody, V domains shown)
VH: EVTLKESGPVLVKPTETLTLTCTASGYPFTNYWMHWVRQPPGKALEWIGEINPSNGRTNYNEKFKSRATLSLDKSKSQAVLTMTNMDPVDTATYYCARGFAYWGQGTLVTVSS
VL: EIVLTQSPATLSLSPGERATLSCSASSSVSFMHWYQQKPGQAPRRWIYDTTKLASGIPARFSGSGSGTDYTLTISSLEPEDFAVYYCQQWNSHPLTFGQGTKLEIK
modifications: Flag-His tag, ACRO GPD-H52D3
B2: 22Mono4DN4 (antibody, V domains shown)
VH: ELVQSGAEVKKPGSSVKVSCKASGYPFTNYWMHWVRQAPGQGLEWIGEINPSNGRTNYNEKFKSRATLTLDKSTSTAYMELSSLRSEDTAVYYCARGFAYWGQGTLVTVSS
VL: B1 VL with I57V, L103V
modifications: Flag-His tag, ACRO GPD-H52D3
B3: 22Mono5JO4 (antibody, V domains shown)
VH: QVQLVQSGAEVKKPGSSVKVSCRASGYPFTNYWMHWVRQAPGQGLEWIGEINPSNGRTNYNEKFKSRATLTLDKLTSTAYMELSSLTSEDTALYYCARGFAYWGQGTLVTVSS
VL: B1 VL with A9G, A59D, S76R, K102T, L103V
modifications: Flag-His tag, ACRO GPD-H52D3
B4: 22Mono5UQY (antibody, V domains shown)
VH: QVQLQESGPGLVKPSETLSLTCTASGYPFTNYWMHWVRQPPGKGLEWIGEINPSNGRTNYNEKFKSRATLSLDKSKNQASLNLDSVSAADTAIYYCARGFAYWGKGSTVTVSS
VL: AIQLTQSPSSLSASVGDRVTITCSASSSVSFMHWYQQKPGKAPKRWIYDTTKLASGVPSRFSGSGSGTDYTFTISSLQPEDIATYYCQQWNSHPLTFGPGTKVDIK
modifications: Flag-His tag, ACRO GPD-H52D3

Biological target: T1, recombinant human GPRC5D-Flag-His
Test: BLI

| Binder | Kd |
| --- | --- |
| B1 | 25.6 nM |
| B2 | 16.9 nM |
| B3 | 0.787 nM |
| B4 | 5.67 nM |
